The values that follow come from the nanobody polyreactivity screen of Harvey et al. (2022).

This data set is described as follows: yeast display, Sf9 membrane polyspecificity reagent, FACS + sequencing; frameworks hold sequencing errors. Summed up:
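Genes from sorted yeast were amplified by colony PCR, read by MiSeq 2 × 250 sequencing and filtered on CDR length. These cells carried a synthetic nanobody library in Saccharomyces cerevisiae BJ5465 and were sorted by FACS into low and high (top ~1%) gates on anti-HA and streptavidin fluorescence. Polyreactivity is labelled according to the gate of origin.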
In the case of “QVQLVESWGGLVQAGGSLRLSCAASGSTFVVIAMGWYRLAPGKERELVAAISTSGGTTYYADSVKGRFTISRDNAKNTVYLQMNSLKPEDTAVYYCAAGGKKRDDYWGQGTQVTVSS”, the “polyreactivity (PSR sort gate)” value is “high polyreactivity”.

“QVQLVESGGGLVQAGGSLRLSCAASGRTLIDNAKGWYRPAPGKERELVASISITNTYYADSVKGRFTISRDNAKNTVYLQMNSLKPEDTAVYYCNAEARPRGVDVEEAYFRYDYWGHGTQVTVSS”: the “polyreactivity (PSR sort gate)” value is recorded as “low polyreactivity”.

“QVQLVESGGGLVQAGGSLRLSCAASGITFNRYSMGWYRQAPGKERELVARISLRGGNTYYADSVKGRFTISRDNAKNTVYLQMNSLKPEDPAVYYCNADLYRQYASRYHYWGQGTQVTVSS”: the “polyreactivity (PSR sort gate)” value is reported as “high polyreactivity”. In the case of “QVQLVESGGGLVQAGGSLRLSCDASGSTIDWYAMGWYRQAPGKERELVAGITISAGRTYYADSVKGRFTISRDNAKNTVYLQMNSLKPEDTAVYYCAADVYYYLDMDHWGQGTQVTVSS”, the “polyreactivity (PSR sort gate)” value is “low polyreactivity”. With “QVQLVESGGGLVQAGGSLRLSCAASGSIFQIYAMGWYRQAPGKERELAAAINSGGITKYADSVKGRFTISRDNAKNTVYLQMNSLKPEDTAVYYCAKRYGWPYGRFDYWGQGTQVTVSS”, the “polyreactivity (PSR sort gate)” value is listed as “low polyreactivity”. The result for “QVQLVESGGGLVQAGGSLRLSCAASGFTFVTNAMGWYRQAPGKERELVAAISRRGGSTYYADSVKGRFTISRDNAKNTVDLQMNSLKPEDTPVYYCNADRQRRRQFSFSSPYDYWGQGTQVTVSS” reads “high polyreactivity”. With “QVQLVESGGGLVQAGGSLRLSCAASGLTFPFYTMGRYRRAPGKERELVAAISRRGGSTYYADSVKGRFTISRDNAKNTVYLQMNSLKPEDTAVYYCAADKYSWYDYWGQGTQVTVSS” the entry was “low polyreactivity”; with “QVQLVESGRGLVQAGGSLRLSCAASGIIFVSYMGWYRQAPGKERELVAAIRWSGGRTYYADSVKGRFTISRDNAKNTVYLQMNSLNPVDTAVYYCAADALRKPKIALYDYWGQGTQVTVSS”, “high polyreactivity”; with “QVQLVESGGGLVQAGGSLRLSCAASGINISWYAMGLYRQAPGKERELVAAISRRGGRTYYADSVKGRFTSSRDNAKNTVYLEMKSMLPEDTAVYYCAVVERQVPGPADGSVQVYYYWGQGTQVTGSS”, “high polyreactivity”. Take “QVQLVESGGGLVQAGGSLRISCAASGLTFFRNAIGWYRQATGKERELVATITSTSSTNYADSVKVRFTISRDNSKNTVYLQMNSLKPEDTAVYYCAARTVGRKAGFDYWGQGTQVTVSS”: the “polyreactivity (PSR sort gate)” value is “high polyreactivity”. With “QVQLVESGGGLVQAGGSLRLSCAASAFIFRYYAIGGYRQAPGNERELVAAIARSGGSTYYADSVKGRFTISRDNAKNTVYLQMNSLKPEVTAVYYCNRGDVIGRQYDSAYGYWGQGTQVTVSS” the entry was “high polyreactivity”; with “QVQLVESGARLVQAGGSLRLSCAPSGSIFAYNAMGWYRQAPGKERELVAAITKSGGSTYYADSVKGRFTISRDHAKNTVYLQMNSLKPEDTAVDYCNVVVPHSISSHGDYWGQGTQVTVSS”, “low polyreactivity”; with “QVQLVESGGGLVQAGGSLRLSCAASGRTFGFNVMGRYRQAPGKERELVAAISWSGGSTYYADSVKGRFTISRDNAKNTVYLQMTSLKPEDTAVYYCNKRYVHRYGYWGQGTQVTVSS”, “low polyreactivity”. For “QVQLVESGGGLVQAGGSLRLSCAASGRIIDLNAMGWYRQAPGKERQLVAAISYSGGRTFYADSVKGRFTISRDNAKNTVYLQMNSLKPEDTAVYYCNARYGKPAYQYGMDYWGQGTQVTVSS”, the “polyreactivity (PSR sort gate)” value was “low polyreactivity”.

In the case of “QVQLVESGGGLVQAGGSLRLSCAASGFTFDSYAMGWYRQAPRKERELVAAITSDGSTYYADSVKGRFTISRDNAKNNVYLQMNSLKAEDTAVYYCAADGISLYATAYDYWGQGTQVTVSS”, the “polyreactivity (PSR sort gate)” value is “low polyreactivity”. With “QVQLVESGGGLVQAGGSLRLSCAASGSIFPHNAMGWYRQAPGKERELVAAISTSGGRTYYADSVKGRFTISRDNAKNTVYLQMNSLKPVDTAVYYCNARSVRSRYDYWGQGTQVTVSS” the entry was “high polyreactivity”; with “QVQLQERGGGLVQAGGSLCLSCAASGTIFFDGDMGWYRQAPGKEREFVAAINPGGSAYYADSVKGRLPLAAITHTVYLQMNSLKPEDTAVYYCAAKLFDVYGYYYWGQGTHVTVSS”, “low polyreactivity”.

Consider “QVQLVESGGGLVQAGGSLRLSCAASGTIFGPNAMGWYRKAPGTERELVAAITLSGGSTYYSDSVKGRFTISRDNAKNTVYLPMNSLKPEDTAVYYCAAGPDYGWRRYDYWGQGTQVTVSW”, for which the “polyreactivity (PSR sort gate)” value was “low polyreactivity”. On to “QVQLVDSGGGLVQAGGSLRISCAASGSIFPPYAMGWSRQAPGKERELVAAITYSGVRTYYADSVKGRFTISRDNAKNTVYLQMNSLKPEDTAVYYCAAVYRRGIGYPFGYWGQGTQVSVSS”, for which the “polyreactivity (PSR sort gate)” value is on record as “high polyreactivity”. The result for “QVQLVESGGGLVQAGGSLRLSCAASGIIFYDNAMGWYRKAPGKERELVATITRSGDSTYYADSVKGRFTISRDNAKNTVYLQMNSLKPEDTAVYYCAKDTYGVLAYFQVSREYWGQGTQVTVSS” reads “low polyreactivity”; that for “QDQHVESGGCLVQAGGSLRLSCAASGRTFVRNTMGWYRQAPGKEREFVAAISRSGGNTHYADSVKGRFTISRDNAKNTVYLQMNSLKPEDTAVYYCATRAGYEVYPNKMNYWGQGTQVTVSS”, “high polyreactivity”. The result for “QVQLVESGGRLVQAGGSLRLSCAASGRIFAQYAMGWYRQAPGKERELVAAISGRGRTTYYADSVKGRFTISRDNEKNNVYLQMNSVKPEDTAAYYCAAKSTYVAGDYSGQGTQVTVSS” reads “high polyreactivity”; that for “QVQLVESGGGLDQAGGSLRLSCAASGFTSYLYTMGWYRQAPGKERELVAAISNSGGNTYYADSLKGRFTISRDIAKKTVYLQMNSLKPEDTAVYYCAAVRRISRYDYWGQGTQVTVSS”, “high polyreactivity”. With “QVQLVESGGGLVQAGGSLRLSCAASGRTLLYYAMGWYRQAPGKERELVARISTGGGTSYADSVKGRFTISRDNAKNTVYLQMNSLKPEDTAVFYCAAKRSYRRALLTLDYWGHGTQVTVSS” the entry was “high polyreactivity”; with “QVQLVESGGGLVQAGGSLRLSCAASGLTFRYYAMGWYRQAPGKERELVAAISWSGGSTYYADSVKGRFTISRDNAKNTVYLQMNSLKPEDTAVYFCNAELYPQWYDSGQTMEYWGQGTQVTVSS”, “high polyreactivity”; with “QVQLVESGVGLVQAGGSLRLSCAPSGRTFFWYAMGWYRPAPGKERELVAAIRGAGRTNYADSVKGRFTISRDNAKYTVYLHMNSLKPEDTAVYYCAAQHYPWRRYDYWGLGTQVTVSS”, “high polyreactivity”. Take “QVQLVESGGLLVQAGGSLRLSCAASGRIFNYNAMGWYRQAPGKERELVAAIDSGGRTNYADSVKARFTISRDNAKNTGYLQMNSLKPEDTAVYYCNREAAHGSLRWTEMEYWGQGTQVTVSS”: the “polyreactivity (PSR sort gate)” value is on record as “low polyreactivity”.

As for “QVQLVESGGGLVQAGGSLRLSCAASGRIFYGNTMGWSRQAPGKERELVAAISLRGGSTYYADSVKGRFTISRDTAKNTVSLQMNSLKPEDTAVYYCAATGGRGPRRYYWGQGTQVTVSS”, the “polyreactivity (PSR sort gate)” value is reported as “high polyreactivity”.

Regarding “HVQLVESGGGLVQAGGSLRLSCAASGRTFPYYAMGWYRQAPGKERELVAGITSNAGSTYYADSVKGRFTISRDNAKNTVYLLMNSLKPEDTAVYYCAKTKAGRWTTFKFGYWGQGTQVTVSS”, the “polyreactivity (PSR sort gate)” value is on record as “high polyreactivity”. The result for “QVQLVESGGGLVQAGGSLRLTCAPSRSIFVAYTMGWYRQAPGKERELVAAISRGGSTNYADSVKGRFTISRDNAKNTVYLQMNSLTPEETAVYYCAAKVWDGQLLYYWGQGTQVTVSS” reads “low polyreactivity”; that for “QVQLVESGGGLVQAGGSLRLSCAASGRTFYSNAMGWYRQAPGKERELVAAITSTDDSTYYADSVKGRFTISRDNAKNTVYLQMNSLKPEDNAVYYCNRDGLIAIRGLWWVEYDYWGQGTQVTVSS”, “low polyreactivity”; that for “QVQLVESGGGLVQAGGSLRLSCAASGIIIPVYAMGWYRQAPGKERELVAAISSGGSTYYADSVKGRFTISRDNAKNTVYLQMNSLKPEDTAVFYCAAGYQKGYADPGFDYWGQGTQVTVSS”, “high polyreactivity”. The result for “QVQLVESGGGLVQAGGSLRLSCAASGSIFVTYAMGWYRQAPGKERELVARITSGGSTYYADSVKGRFTISRDNAKNTVYLQMNSLKPEDTAVYYCAARRWLRYDLDYGGQGTQVTVSS” reads “low polyreactivity”; that for “QVQLVESGGGLVQAGGSLRLSCAATGRTIHGYAMGWYRQAPGKERELVAAITGTGGRTYYADSVKGRFTISRDNAKNTVYLQMNSLKPEDTAVYYCAARPWIKSGYWGQGTQVTVSS”, “high polyreactivity”; that for “QVQLVESGGGLVQAGGSLRLSCAASGRIFFGYAMGWYRPAPGKEREFVAAINWIGGRTYYAASVKGRFTISRDNAKNTVYLQMNSLKPEDTAVYYCAKEVSPYWTFDYWGQGTQVTVSS”, “low polyreactivity”. For the sequence “QVQLVESGGGLVQAGGSLRLSCAASGRTYTYAMGWYRQAPGKERELVAGISRRGGNTYYADSVKGRFTISRDNAKNTVYLQMNSLKPEDTAVYYCAAVSFSASSYTYEYWGQGTQVTVSS”, the “polyreactivity (PSR sort gate)” value is “high polyreactivity”. As to “QVQLVESGGGLVQAGGSLRLSCAASGIIFKWYGMGGYRQAPGKERELVAGITWRTGSTYYADSVKGRFTISRDNAKNTVYLQMNSLKPEDTAVYYCAARLYTYPKGKYWGQGTQVTVSS”, the “polyreactivity (PSR sort gate)” value is given as “high polyreactivity”. With “QVQLVESGGGLVQAGGSLRLSCAASGRTFLYYTMGWYRQAPGKERELVAAITSGTSTNYADSVKGRFTISRDNAKNTVYLQMNSLKPEDTAVYYCNKRAARSLNGYPLYGYYYWGQGTQVTVSS” the entry was “low polyreactivity”; with “QVQLVESGGGLVQAGGSLRISCAASGRTFGRYAMEWYRQAPGKERELVAAISWSGGSTYYADSVKGRFTISRDNAKNTVYLQMNSLKPEATAVYYCAAVTTDGVYAFDYWGQGTQVTVSS”, “low polyreactivity”. The result for “QVQLVESGGGLVQAGGSLRLSCAASGSNSRVNAMGWYRQATWKERELVASITKSTGSTYYADSVKGRFTISRDNAKNTVYLQMNSLKPEDTAVYYCAKAASYPVRAFYYWGLGTQVTVSS” reads “high polyreactivity”. Consider “QVQLVESGGGLVQAGGSLRLSCAASGSTFASYAMGWYRQAPGKQRELVAAITDSGGSTYYADSVKGRFTISRDNAKNTVYLQMNSLKPEDTAVSYCAAYGRYFSYHDYDYWGQGTQVTVSS”, for which the “polyreactivity (PSR sort gate)” value is “low polyreactivity”.
